Experiments:
[1] = target: IGF-II receptor (Long Evans rat liver) (rat); test: saturation binding of [125I] IGF-II to pooled rat liver homogenate, filter plates; control diet, vehicle
[2] = target: IGF-II receptor (Long Evans rat liver) (rat); test: saturation binding of [125I] IGF-II to pooled rat liver homogenate, filter plates; ethanol diet, vehicle
[3] = target: IGF-II receptor (Long Evans rat liver) (rat); test: saturation binding of [125I] IGF-II to pooled rat liver homogenate, filter plates; control diet, PPAR-α agonist treated rats
[4] = target: IGF-II receptor (Long Evans rat liver) (rat); test: saturation binding of [125I] IGF-II to pooled rat liver homogenate, filter plates; control diet, PPAR-γ agonist treated rats
[5] = target: IGF-II receptor (Long Evans rat liver) (rat); test: saturation binding of [125I] IGF-II to pooled rat liver homogenate, filter plates; control diet, PPAR-δ agonist treated rats
[6] = target: IGF-II receptor (Long Evans rat liver) (rat); test: saturation binding of [125I] IGF-II to pooled rat liver homogenate, filter plates; ethanol diet, PPAR-α agonist treated rats
[7] = target: IGF-II receptor (Long Evans rat liver) (rat); test: saturation binding of [125I] IGF-II to pooled rat liver homogenate, filter plates; ethanol diet, PPAR-γ agonist treated rats
[8] = target: IGF-II receptor (Long Evans rat liver) (rat); test: saturation binding of [125I] IGF-II to pooled rat liver homogenate, filter plates; ethanol diet, PPAR-δ agonist treated rats

Chain of Human recombinant [125I] IGF-II (P01344 25-91): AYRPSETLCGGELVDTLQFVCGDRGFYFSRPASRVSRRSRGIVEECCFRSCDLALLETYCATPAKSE

## Human recombinant [125I] IGF-II (from UniProt P01344 25-91) (ligand)
[1]
  BMAX: 40.1
[2]
  BMAX: 22.6
[3]
  BMAX: 40.3
[4]
  BMAX: 25.2
[5]
  BMAX: 29
[6]
  BMAX: 28.9
[7]
  BMAX: 22.6
[8]
  BMAX: 51.5
